# The domain aggregation screens of Martell et al. (2025)
# Experiment: soluble fraction after stress (log2 fold change); higher = more stays soluble; pooled small domains, quantitative proteomics
# Conditions: stress: 75 degC
# 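Further: 20 min heating vs room temperature control held 20 min.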
row,Sequence,soluble fraction (log2)
1,HMNQRQLQIKQMLDVAQEVFLKQLKTVFPDVSEMTIRRDLILLEDMGYAVRTHGGAVSINRF,-2.42
2,HMNQRTATVTASQLNVRSGPSTAYSIVHVLRQGETVEVIGESDGWYQIRLKDGRVGWSSGQYLNLN,-0.142
3,HMNQSAVMAERMKQTKNRILQTAKEIFLEQGYKRTTIRQIVERSGITSGSIYNIFSSKEEIFSALVDDL,-3
4,HMNQSYQLWIKDDELGPTPRSVGVLNEHFEVDPAALTNYDAELLRRATFGISLEPRGGSPTGQP,-0.192
5,HMNQTPQISYSQFIADVRSGQIKDVNIDSDNRTIVGHKFSGEEFTTFSPGDNKLVDELLNYNVEIKTSP,0.611
6,HMNREEFLSQLERLLYDIPAQEREEALEYYNGYFDDAGKEKEAEVIQELGSPGKVAAIIKADLSG,0.12
7,HMNRETAISIYRILHILEEPYKEVFTLRTLGDLSYREIADIFGKQENWARVTYHRAKLKIREALVS,-2.23
8,HMNRIFQERVVPAELDTLRADKVAASLFSDFSRNELAHWIKMGDLSINGGVKKAKDKLFEGDVLILDVEIV,-0.944
9,HMNRKILVLLAGKEQITDNVSVMQSIHRYAFINTATINKAQHEILIEKEEIRQEALTLIHEFLK,-0.97
10,HMNRKLKAKATREKIYKSAEKLFSQNDYNKVSVDAIVEAAGVAKGSFYVHFASKDALIAMLINDH,-0.448
11,HMNRMKLLREQHNLSQTDLAKILNISRQSYNFYENEKRDPDTTMLIRIADFFNVSLDYLLGRTNN,-2.84
12,HMNRPYVELFSGLGQEEAQQIVQKLQEDEVDYKFSGDSTILVKEDVVDQTKATLVQEGYPKS,0.153
13,HMNSEEINDVRKAVDELPTHLREILLLNYFQQMSYVQISDSLEIPLGTVKSRLHAAVAAFRNAWQSSQEE,-0.484
14,HMNSEELFLRRIAQELIDQHGKDLHRIIVVLPSNRSKVFLKKFLFEILGSAFLTPQLMLLPQFVKSIV,-0.425
15,HMNSFGWESFVGEKGVTDTDLRPSGWIVIKDKRLFALTEGTFIEKGVSVEILSVEGNRIVVREIS,-2.9
16,HMNSHKIIDRLNQMITEKDLSEEMPAITEAFKNNERSAEDLKKYVAENLSKKLNAEEREKFVSLILQYRN,-0.0788
17,HMNSILFAITKEGGVVYGGKPVGVNGVRPLVRRLLQSEEMPVILQVDEKADAGLVIRVIDESKLGGASKV,-0.372
18,HMNSIQEQIEKYVYSLAPVTIERYESLKNGDIEDIEFEKLRKSISSKIINEKIDNKKQVAILSHLKKMYSD,-0.159
19,HMNSKIIVESIIKSKNGIAKVADLVEGGVSRQSIKKMYADGYIKRISRGYYTLTSEPVSSDEQVISS,-0.645
20,HMNSKMTYSELITSMENKEVESVKISSSGDVASVKLKNSKTEKEVKIPSLDSFMTYTEQYLKTGEITLEE,0.0529
21,HMNSKMTYSELVTNITNKEVESIKISSTGSTASVKLKNSKSEKEVNIPSLDSFMSYTEEYLKTGDFTLDEE,0.586
22,HMNSLKNKNNLIALVGASNDKNKYGNKILLDLVSKGHNVVPINPKEDTVAGLKSYNNVSELSEKPSI,-0.523
23,HMNSLPFSNFMNEVEAGRVVEVKIQGNNISGVLANGKTFSTYSPNYPELVEKLSSNGVSIVATPQ,0.28
24,HMNSRTLAYSDFIRKVDKGEVSAVVIDGEQVQVQTKDGQTFVTIQPQSEQMNDKLVEQLIAKDISVKAERQ,-0.0843
25,HMNSSLFLARQVHALRKKAGLTLQQLSRKSDVSVSTLSKIEKGQLSPTYEKIVSLARGLDVPIAALFHE,-2.45
26,HMNSSTVDLAKEFLIDLLSSVEKMPASEVQEEAKNAGYSVASIRRAKDNLNIKPFKDGSAWYWKLPSIFK,-0.329

row,Sequence,soluble fraction (log2)
1,HMNSSTYIVTFKVDGEEDIVETYQWGDRIIVPEVEAKDDYVFIGWDAQIPEFMPERNLEFTAI,-0.895
2,HMNSTNYQVIITANGGLNIRAGASTAYARIGGYAKGTVVTILAESNGFGKTDKGWISLNYTSKDLD,-3.11
3,HMNTAALSLQRRNEIKKWLLEEKTLTVAALSNRFNVTYETIRRDLEILEKEGFLKKVYGGAALNERV,-2.83
4,HMNTAIDGLIEKVGMFAMEKKAISVDQVKENFSINGEQAESVIKQLETIGVLGKKNEDGTHTVM,0.159
5,HMNTDALIGKTGYVTEIVGERHGRIQFSGGEWSARTEGVSIPVGAEVRVDRIDGATAVVSAV,0.114
6,HMNTDVEKQKVFTALFDDYFRRNSMTSLEKQLFLTALKTNFQNAQKTVAKDHPYYATYSLIISAIENYR,-0.525
7,HMNTEEKILEKEFLMLYSELGLQPKNIYELMENTGLKYEKLVEMLLQLQLKGLVEQPSYNYYSRL,-1.28
8,HMNTEEVGSYLKKLRLEHSFTQKELAGKLYITHQAVSNWEKGKALPDIGILSQLGDIYGISIDNLLLK,-2.04
9,HMNTEKRVFAGVENTRLDHFLVEQFPEFSRTFIQQMIKSANVIVNGNIEKASYKLREGDTIMTRPM,-0.489
10,HMNTELFTKNLFNKLEVLLGEKNWKSKTAQLLNISSDAFYKKIRNESQLNLHELLLIKDTFKISIDALLDE,-1.35
11,HMNTETAVTKAIDQIQVMMDLRNRSVSFTRDQETGTDIIKVIDDNTGDTIRQMPSEELLTFMKNLTQ,0.165
12,HMNTFKNIFIQEGDLFNLKKNDNQIIFAKEGILINENKKIFRLLNGKIISTNNNRLIGFEFDKIDYNLSN,0.561
13,HMNTGIPHQEVIKKLYSFAEGGDWKGLKEELNRIKEYTLFYNSVKELADSFEINRLIEKLKTYIF,-0.127
14,HMNTGLSEREHEIAQLVLQGRTYAEIGAELFISPRTAEHHIGQIRRRLAATSRSDLLAKLRVAMNTTEGAG,-2.36
15,HMNTISYTELIKQIDEGNVEKVEMTVGSTSVKVKLQGQEEEKKAIVPNTQAFVELIQEKTLEGNQIDLKQN,0.0122
16,HMNTLSPVRILAILDGRSSMAEWQLAEELGVSIDNLSEILNKMSTDGQIRLVPSEDGRMVVP,0.597
17,HMNTPALRQRTQDVPALLIHFAKYFATKGQTPISFAPDFLEALKDYPWPGNVRELRNLVESMVV,-0.133
18,HMNTPHLTPREREVLKGIVDGLINKEIAARMGVSVATVITHRNNLTEKLGTRSVSALTIFAVMHGIVR,-2.55
19,HMNTPNYDVLYRGLADADAGQIMEALQKSNIPFKVDSHSGVLLVPADQVHEARLKLASQGLPRG,-0.119
20,HMNTPTLLLYGGKDHSVPEAGIRHLRAHLSANDRGEYRFYPNAPHLLLQSRQWQQVSQDISQWLAMT,0.037
21,HMNTRWDDAAQTWLRKVIEQQPVLVQISAAKRLRDQAEQRAREAGEEVVTEQHVKRAGLELGFGEP,0.0588
22,HMNTSITVPSLKGLSQEAATLKMERLGLHVEVSDTGFVRSLAFGTVLQQSIAPGEKVKPGRLVYITINSD,-2.2
23,HMNTVAGAISDLSFKVRGSEDIEKLNRLKALSIQAKLDVQGQEEAERLISELEAKYGSLGMTVDKVSGKIA,0.0323
24,HMNTYEIIGGDNRARGPVTGEELSQWIREGRASGHTMARVSDGEHWQPLGSFPEFVGPLQGLPW,0.0698
25,HMNTYVLPDALKSQLSVEDTGMLTKQLQALPETLAEGVLDSLSQMLSKNTLQNPVGWMLAVMKRAREGNFN,-0.305
26,HMNVAVSEADAKAAALERVSGATEADIRMELELDDGYYVYEGDIIYQQKEYEFEIDAQTGKFLKWSEER,-0.121

row,Sequence,soluble fraction (log2)
1,HMNVDLLEARIPIQSHGMRLDQVVAELFPDYSRNRLAAWIKEGRLTVDGKTMKPRDRALASAHVVLEVV,-0.3
2,HMNVGKYILTLAAKEGYSQSDVARRTGISRQMLSYIIAGERKLTLPQALKIESLLSLKTGTLILMQDED,-3.35
3,HMNVNEIREMYPEGTQIVLTEMRGENQMPYGLKGTVKFVDDAGQIHMKWENGSSLALNINEDTFEKVE,0.91
4,HMNVPATAEAYEALLADAESVGKSLWGHEAKRFAAEQALLSAGLREVIQVDPDKARELALRLRGLLDEYRG,0.19
5,HMNVQGFVFDLAEPLDKVPSIEGFPLKLEDPLTLVAAVNKDRSINALFAELSKLNIKIKSMRNE,-0.0601
6,HMNVVSIEHIRTHLQNHLSLIGRSIEESFNEAKVIAFVASLFLTHRGYASVSQDMGTNGEIYLQDLW,-0.465
7,HMNVWGLSERELEATRLLIEGFSSKEASARMGISPSTVRSLWGRARAKMGVDSIEDARELVA,-0.415
8,HMNYAVTAARRESILNAALEIFGKSGYNGSSVKQVALAVGMTEAGVLHHFGTKSNLLIEVLRV,0.396
9,HMNYLDVNIPVTSAVWMGKQLPEMGTLIYLTPDKDVEGMLFIKQATKDKPDGEYIEAKVLGYKEGRVLFDF,-0.964
10,HMPAEEVPLYKAVVVTTPPNRLRVRFSPAGDFKRWLQSGEEVDVYQELGDWRRIEPNGWSSAEWLQRVG,-0.465
11,HMPAGWIPARIRLADYPQLRSLAWHVQGIDTLTPTEALDIYERNARHLDAQAMSAQEQDLLASLRLALS,-0.888
12,HMPALPGNELLRNLMLEHGLKQVDLAEIGSQGVVSEILSGKRRINRRHADLLARRFSLPAELFSR,-0.217
13,HMPANLTPDYFKAEQWYRSASTNEEKMLALEQMLAVMPKHKGTEHLQADLKRKLSQLKDASAQ,0.19
14,HMPAPAPDIPYHSRVSVRRADGFYEGTWTNTAPILDYTGRWMVNVSLGGKRVFVPVEEVVVH,-1.05
15,HMPAPKPSGALSLKDEPLYAASDSKRRSGTVSGTYYRWDGENVNGRMRITNKQENIGKAGQVTGWITAH,0.0409
16,HMPASTSIPYSDFISRVESGDVQEAKIGESAITGTYKDGSQFKTVKPPTLDTNLMPTLIQNKVNVVGVEP,0.176
17,HMPAVGGVVKGAVVSVGRNEVRLDIGGLAIGIIRGPELDKHVDLRIGDEVEATVITLDNEFGELELSL,-1.37
18,HMPAVTEQTKTNLRRAFWQLYEQKPIQKITVKQITDLAGYNRGTFYLYFKDVYDLLDDIENK,-1.09
19,HMPAVTEQTRANLRTAFWSLYREKPTSKITVREITDRAGYNRATFYLYYRDVYDLFEQIEQEIL,-2.37
20,HMPDAGQRRYLELVTALAGARSLTIDDLERRAIRFAEWGNGYSGRTARQFIDTLLQDRGVAEEL,-0.731
21,HMPDAIPLETIIKNVNVLAGFLINSKTFTEDDIVMAYNNIMKIKGDHTDEKTLTNDVYTLLTEMN,-0.714
22,HMPDIFDRGTAHITDAASGVAITFTRTFRIPPEVTMTHKGGTVVAIARLVGSITTGGFTAVLENT,0.0362
23,HMPDLQDTLYRLVPEDGSAIGNQSLREKFLSTAKDASDADFEAARDGLVEQGKLTKGKGRGGSVRRAEP,0.551
24,HMPDLSMLDEVLDEYRSQAGSLVTVLQKAQDLYGYLPLTILRHIAEEMNIKPAQVYGVATFYTQFRL,0.0378
25,HMPDRQKDIQNWQQIAETLLNMLDKYVAALETGKTGLAEAYKAIFAETLRRLDDRLDPEQFLP,-1.91
